Measured values published in patent publication US11156558B2, “Assessment of stability of biological product in prefilled syringes” (Becton Dickinson France, priority 2016, dated 2021).

Experiments:
[1] = Stability of mimetic peptide solution stored in direct contact with adhesive and insoluble tungsten (UPLC/DAD); assay type: physicochemical; details: insoluble tungsten, 3 days at 70° C., ammonium acetate pH4 buffer (20 mM)+0.02% tween 80, 45 μg/ml
Protocol: (§1) Peptide solutions were analyzed by LC/DAD/MS with Quattro premier XE Mass spectrometer from Waters.
The AAHAA (SEQ ID NO: 2) peptide was dissolved in ammonium acetate pH4 buffer (20 mM)+0.02% of tween 80 to a final concentration of 45 μg/ml. The AAHAA (SEQ ID NO: 2) peptide solution was stored in direct contact with the adhesive used to stake the needle to the syringe and with insoluble tungsten, a potential process residue, for 3 days at 70° C.
FIG. 3 is AAHAA (SEQ ID NO: 2) peptide ULPC/DAD chromatograms after 3 days at 70° C. in direct contact with two syringe components: (a) adhesive and (b) insoluble tungsten. (c) is chromatogram references.

[2] = Stability of mimetic peptide solution stored in direct contact with plunger stoppers (UPLC/DAD/MS); assay type: physicochemical
Protocol: as §1
The peptide AAWAA (SEQ ID NO: 1) was dissolved in ammonium acetate pH4 buffer (20 mM)+0.02% Tween 80 to a final concentration of 45 μg/ml. The obtained AAWAA (SEQ ID NO: 1) peptide solutions were stored in direct contact with a non-coated and an ETFE coated plunger stoppers for 30 days at 25° C./60% RH.
FIG. 1 is a UPLC/DAD chromatogram of AAWAA (SEQ ID NO: 1) pentapeptide in direct contact with a coated and a non-coated plunger stopper after 15 days (c, d) and 30 days (a,b) of storage at 25° C./60% RH. Chromatograms e and f are AAWAA (SEQ ID NO: 1) solutions references (without any direct contact with plunger stoppers),
FIG. 2 is the electrospray positiv (ESI+) mass spectra of (a) intact AAWAA (SEQ ID NO: 1) peptide (Retention time of 17.2 min) and (b) oxidized form of AAWAA (SEQ ID NO: 1)(Retention time of 17.1 min) detected after 30 days (25° C.) of contact between the non-coated plunger stopper and AAWAA (SEQ ID NO: 1) peptide solution.

With “Ala-Ala-His-Ala-Ala (AAHAA; synthesized pentapeptide) [mimetic model pentapeptide]” the “reaction with syringe component (degradation)” value [1] was “react with insoluble tungsten”.

In the case of “Ala-Ala-Trp-Ala-Ala (AAWAA; synthesized pentapeptide) [mimetic model pentapeptide]”, the “oxidized form (ESI+ mass spectra)” value ([2]; after 30 days (25° C.) of contact with the non-coated plunger stopper) is reported as “detected” and the degradation yield ([2]; non-coated vs ETFE coated plunger stopper, direct contact, 30 days at 25° C./60% RH, ammonium acetate pH4 buffer (20 mM)+0.02% Tween 80, 45 μg/ml) is reported as “more important when the peptide is in direct contact with the non-coated plunger stopper”.
